Results published in the supplement of paper PMC7125110.
± gives the standard error. For some assays here: Variants at the floor of the assay were thinned out.

B1: glmS ribozyme (parent)
chain: AUAAAAGCGCCAGAACUACAGAAAUGUAGUUGACGAGGAGGAGGUUUAUCGAAUUUUCGGCGGAUGCCUCCAAA

Tests used:
Conditions in all cases: with glucosamine-6-phosphate
glucosamine-6-phosphate [1] = variants of: B1; assay: kcat; higher = faster cleavage; RNA array
Summary of the method: (§1)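 Barcoded glmS ribozyme variants on sequenced MiSeq chips were transcribed in situ by E. coli RNA polymerase and tracked through a hybridised Cy3 probe at 37 °C. Glucosamine-6-phosphate (40 μM to 10 mM) in HEPES/KCl/Mg(OAc)2 buffer was flowed in, and tiles were imaged over ~14 h. Signals were normalised to baseline and to non-cleaving reference variants; per-tile medians were fit to one- or two-exponential decays to give kobs. kcat and KM came from weighted Michaelis–Menten fits across concentrations.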

glucosamine-6-phosphate [2] = variants of: B1; assay: self-cleavage kobs at 40 uM GlcN6P; higher = faster cleavage; RNA array
Summary of the method: as §1

glucosamine-6-phosphate [3] = variants of: B1; assay: self-cleavage kobs at 160 uM GlcN6P; higher = faster cleavage; RNA array
Summary of the method: as §1

glucosamine-6-phosphate [4] = variants of: B1; assay: self-cleavage kobs at 640 uM GlcN6P; higher = faster cleavage; RNA array
Summary of the method: as §1

glucosamine-6-phosphate [5] = variants of: B1; assay: self-cleavage kobs at 2500 uM GlcN6P; higher = faster cleavage; RNA array
Summary of the method: as §1

glucosamine-6-phosphate [6] = variants of: B1; assay: self-cleavage kobs at 10000 uM GlcN6P; higher = faster cleavage; RNA array
Summary of the method: as §1

glucosamine-6-phosphate [7] = variants of: B1; assay: KM; higher = weaker cofactor use; RNA array
Summary of the method: as §1

Variant	kcat (glucosamine-6-phosphate [1]) [s⁻¹]	self-cleavage kobs at 40 uM GlcN6P (glucosamine-6-phosphate [2]) [s⁻¹]	self-cleavage kobs at 160 uM GlcN6P (glucosamine-6-phosphate [3]) [s⁻¹]	self-cleavage kobs at 640 uM GlcN6P (glucosamine-6-phosphate [4]) [s⁻¹]	self-cleavage kobs at 2500 uM GlcN6P (glucosamine-6-phosphate [5]) [s⁻¹]	self-cleavage kobs at 10000 uM GlcN6P (glucosamine-6-phosphate [6]) [s⁻¹]	KM (glucosamine-6-phosphate [7]) [µM]
G60A C70G	1.99e-05 ± 7.1e-06						
G43U U49C	< 1e-05	< 1e-05	< 1e-05	< 1e-05	< 1e-05		
G37C A53U	2.09e-05 ± 2.3e-06	< 1e-05			2.18e-05 ± 9.8e-06	1.92e-05 ± 8.5e-06	
G59U G62U C67G	< 1e-05		< 1e-05				
G32U G40A	0.000344 ± 5e-05			6.33e-05 ± 6.7e-06	0.000131 ± 1e-05	0.000267 ± 1.9e-05	3450 ± 950
C11U U47C	8.97e-05 ± 5.3e-06			4.05e-05 ± 1.7e-05	5.91e-05 ± 8.5e-06	8.15e-05 ± 8.5e-06	1150 ± 290
A39C U65A	0.000512 ± 3.7e-05			6.9e-05 ± 1.1e-05	0.000191 ± 2.8e-05	0.000359 ± 4.1e-05	4220 ± 530
U57G C58G	3.94e-05 ± 1.6e-05			7.15e-05 ± 2.3e-05	5.55e-05 ± 2e-05		
A39G U45A	0.0357 ± 0.011	0.00238 ± 0.00029	0.00768 ± 0.0018	0.0157 ± 0.0034	0.061 ± 0.03	0.0497 ± 0.018	581 ± 220
C11G A15G	1.01e-05 ± 1.4e-06			< 1e-05			
C16A U46A	7.31e-05 ± 2e-06				6.28e-05 ± 2e-05	6.82e-05 ± 1.6e-05	547 ± 78
C16A U46C	6.68e-05 ± 1.4e-05	< 1e-05			5.11e-05 ± 1.4e-05	5.46e-05 ± 1e-05	
G13U A52U	1.58e-05 ± 2.6e-06	< 1e-05	< 1e-05				
U31G A33U C70U	9.54e-05 ± 1.9e-05					7.8e-05 ± 2e-05	
U30A A53U	0.00525 ± 0.00098	0.000128 ± 1.8e-05	0.00035 ± 7.7e-05	0.00135 ± 0.00021	0.00272 ± 0.00042	0.00523 ± 0.001	1860 ± 480
U56G C70A	4.56e-05 ± 9.3e-06		3.41e-05 ± 1.7e-05	7.43e-05 ± 3e-05	6.95e-05 ± 1.6e-05	3.66e-05 ± 8.6e-06	
A6G G43C C68G	0.000785 ± 0.00019	3.71e-05 ± 1.7e-05	9.17e-05 ± 2.6e-05	0.000423 ± 8.3e-05	0.000399 ± 0.00011	0.000819 ± 0.00015	1000 ± 470
